These results are taken from article PMC11685595 (Scientific Reports, 2024).

Common to all, as to assay: other fluorescence titration; intrinsic Trp fluorescence quenching, plate-based (96-well), 0-750 µM peptide added to 8 µM enzyme.Ni(II) (1:2), anaerobic preparation, 10 min at 25 °C, 50 mM Tris pH 7.5, 0.4 M NaCl; λex/λem 280/350 nm; fit to one-site specific binding with or without Hill slope
Common to all, as to details: both partners purified

Assay [1] deals with T1, AtVRN2_(2-15) 14-mer peptide (Arabidopsis thaliana, UniProt Q8W5B1 2-15).
T1 construct: Polycomb group protein Vernalisation 2 (VRN2), Arabidopsis thaliana, Cys-initiating residues 2-15; source: synthetic peptide (GL Biochem, China)

Assay [2] concerns the target T2, AtZPR2_(2-15) 14-mer peptide (Arabidopsis thaliana, UniProt Q9LZX5 2-15).
T2 construct: Little Zipper 2 (ZPR2), Arabidopsis thaliana, Cys-initiating residues 2-15; source: synthetic peptide (GL Biochem, China)

Assay [3] concerns the target T3, AtRAP2.12_(2-15) 14-mer peptide (Arabidopsis thaliana, UniProt Q9SSA8 2-15).
T3 construct: RELATED TO AP-2.12 (RAP2.12), Arabidopsis thaliana ERFVII, Cys-initiating residues 2-15; also called RAP2_(2-15); source: synthetic peptide (GL Biochem, China)

Assay [4] addresses T4, AtHRE1_(2-15) 14-mer peptide (Arabidopsis thaliana, UniProt Q8H0T5 2-15).
T4 construct: HRE1, Arabidopsis thaliana ERFVII, Cys-initiating residues 2-15; source: synthetic peptide (GL Biochem, China)

B1: Arabidopsis thaliana Plant Cysteine Oxidase 5, Ni(II)-substituted (AtPCO5.Ni(II)) (enzyme)
chain: not shown
notes: Plant Cysteine Oxidase 5 (AtPCO5), Arabidopsis thaliana; Active-site Fe(II) removed and replaced with Ni(II) (enzyme:metal 1:2)
On to B1, for which the dissociation constant (Kd) in assay [1] stood at 107 ± 29.7 µM; in assay [2], 692 ± 513 µM; in assay [3] it was 258 ± 14.3 µM; in assay [4], 223 ± 10.3 µM.

As usually defined, the Kd is the equilibrium constant for the complex coming apart. The low end stands for a tighter complex, the high end for a looser complex.
